Measurements: patent US20140087995A1 (published 2014)
Where a chain is given by its changes, count along the chain named. Numbered stars: 1 amine (or outer) side, 2 acyl side, 3 side chain; on linkers, the order of the positions; unused ones are H or OH. Bridge positions count the residues as written; N and C are the ends. Side chains are listed from the residue outwards. Ends that are not written are not given here. * marks the point of attachment. C20 diacid = O=C(O)CCCCCCCCCCCCCCCCCCC(=O)*; γGlu = O=C(O)[C@H](CCC(=O)[*:2])N[*:1]

B1: N^α1-[2-[2-[2-[[2-[2-[2-[[(4S)-4-carboxy-4-(19-carboxynonadecanoylamino)butanoyl]amino]ethoxy]ethoxy]acetyl]amino]ethoxy]ethoxy]acetyl]-[Arg17,Pro21,Pro27]-h-am … (peptide)
peptide: KCNTATCATQRLANFLRHSSPNFGAIPSSTNVGSNTY
modifications: C20 diacid-gGlu-2xOEG on the alpha amino group of the N-terminal residue; disulfide bridge Cys2-Cys7; C-terminal amide
notes: Synthetic acylated analogue of human amylin; also called compound 24
B2: N^α1-[2-[2-[2-[[2-[2-[2-[[(4S)-4-carboxy-4-(19-carboxynonadecanoylamino)butanoyl]amino]ethoxy]ethoxy]acetyl]amino]ethoxy]ethoxy]acetyl]-[Glu14,Arg17,Pro21,Pro27 … (peptide)
peptide: B1 peptide with N14E
modifications: C20 diacid-gGlu-2xOEG on the alpha amino group of the N-terminal residue; disulfide bridge Cys2-Cys7; C-terminal amide
notes: Synthetic acylated analogue of human amylin; also called compound 19
B3: N^α1-[(4S)-4-carboxy-4-(19-carboxynonadecanoylamino)butanoyl]-[Arg17,Pro21,Pro27,Arg34]-h-amylin (peptide)
peptide: B1 peptide with S34R
modifications: C20 diacid-gGlu on the alpha amino group of the N-terminal residue; disulfide bridge Cys2-Cys7; C-terminal amide
notes: Synthetic acylated analogue of human amylin; also called compound 39
B4: N^α1-[(4S)-4-carboxy-4-(19-carboxynonadecanoylamino)butanoyl]-[Arg17,Pro21,Pro27,Glu35]-h-amylin (peptide)
peptide: B1 peptide with N35E
modifications: C20 diacid-gGlu on the alpha amino group of the N-terminal residue; disulfide bridge Cys2-Cys7; C-terminal amide
notes: Synthetic acylated analogue of human amylin; also called compound 23
B5: N^α1-[(4S)-4-carboxy-4-(19-carboxynonadecanoylamino)butanoyl]-[Arg17,Pro21,Pro27,His34]-h-amylin (peptide)
peptide: B1 peptide with S34H
modifications: C20 diacid-gGlu on the alpha amino group of the N-terminal residue; disulfide bridge Cys2-Cys7; C-terminal amide
notes: Synthetic acylated analogue of human amylin; also called compound 40
B6: N^α1-[(4S)-4-carboxy-4-(19-carboxynonadecanoylamino)butanoyl]-[Arg17,Pro21,Pro27,Lys35]-h-amylin (peptide)
peptide: B1 peptide with N35K
modifications: C20 diacid-gGlu on the alpha amino group of the N-terminal residue; disulfide bridge Cys2-Cys7; C-terminal amide
notes: Synthetic acylated analogue of human amylin; also called compound 34
B7: N^α1-[(4S)-4-carboxy-4-(19-carboxynonadecanoylamino)butanoyl]-[Arg17,Pro21,Pro27,Pro31,Glu35]-h-amylin (peptide)
peptide: {C20 diacid-γGlu}-KCNTATCATQRLANFLRHSSPNFGAIPSSTPVGSETY-NH2
modifications: disulfide 2-7
SMILES: CC[C@H](C)[C@H](NC(=O)[C@H](C)NC(=O)CNC(=O)[C@H](Cc1ccccc1)NC(=O)[C@H](CC(N)=O)NC(=O)[C@@H]1CCCN1C(=O)[C@H](CO)NC(=O)[C@H](CO)NC(=O)[C@H](Cc1c[nH]cn1)NC(=O)[C@H](CCCNC(=N)N)NC(=O)[C@H](CC(C)C)NC(=O)[C@H](Cc1ccccc1)NC(=O)[C@H](CC(N)=O)NC(=O)[C@H](C)NC(=O)[C@H](CC(C)C)NC(=O)[C@H](CCCNC(=N)N)NC(=O)[C@H](CCC(N)=O)NC(=O)[C@@H](NC(=O)[C@H](C)NC(=O)[C@@H]1CSSC[C@H](NC(=O)[C@H](CCCCN)NC(=O)CC[C@H](NC(=O)CCCCCCCCCCCCCCCCCCC(=O)O)C(=O)O)C(=O)N[C@@H](CC(N)=O)C(=O)N[C@@H]([C@@H](C)O)C(=O)N[C@@H](C)C(=O)N[C@@H]([C@@H](C)O)C(=O)N1)[C@@H](C)O)C(=O)N1CCC[C@H]1C(=O)N[C@@H](CO)C(=O)N[C@@H](CO)C(=O)N[C@H](C(=O)N1CCC[C@H]1C(=O)N[C@H](C(=O)NCC(=O)N[C@@H](CO)C(=O)N[C@@H](CCC(=O)O)C(=O)N[C@H](C(=O)N[C@@H](Cc1ccc(O)cc1)C(N)=O)[C@@H](C)O)C(C)C)[C@@H](C)O
notes: Synthetic acylated analogue of human amylin; also called compound 28
B8: N^α1-[(4S)-4-carboxy-4-(19-carboxynonadecanoylamino)butanoyl]-[Glu14,Arg17,Pro21,Pro27,Arg35]-h-amylin (peptide)
peptide: {C20 diacid-γGlu}-KCNTATCATQRLAEFLRHSSPNFGAIPSSTNVGSRTY-NH2
modifications: disulfide 2-7
SMILES: CC[C@H](C)[C@H](NC(=O)[C@H](C)NC(=O)CNC(=O)[C@H](Cc1ccccc1)NC(=O)[C@H](CC(N)=O)NC(=O)[C@@H]1CCCN1C(=O)[C@H](CO)NC(=O)[C@H](CO)NC(=O)[C@H](Cc1c[nH]cn1)NC(=O)[C@H](CCCNC(=N)N)NC(=O)[C@H](CC(C)C)NC(=O)[C@H](Cc1ccccc1)NC(=O)[C@H](CCC(=O)O)NC(=O)[C@H](C)NC(=O)[C@H](CC(C)C)NC(=O)[C@H](CCCNC(=N)N)NC(=O)[C@H](CCC(N)=O)NC(=O)[C@@H](NC(=O)[C@H](C)NC(=O)[C@@H]1CSSC[C@H](NC(=O)[C@H](CCCCN)NC(=O)CC[C@H](NC(=O)CCCCCCCCCCCCCCCCCCC(=O)O)C(=O)O)C(=O)N[C@@H](CC(N)=O)C(=O)N[C@@H]([C@@H](C)O)C(=O)N[C@@H](C)C(=O)N[C@@H]([C@@H](C)O)C(=O)N1)[C@@H](C)O)C(=O)N1CCC[C@H]1C(=O)N[C@@H](CO)C(=O)N[C@@H](CO)C(=O)N[C@H](C(=O)N[C@@H](CC(N)=O)C(=O)N[C@H](C(=O)NCC(=O)N[C@@H](CO)C(=O)N[C@@H](CCCNC(=N)N)C(=O)N[C@H](C(=O)N[C@@H](Cc1ccc(O)cc1)C(N)=O)[C@@H](C)O)C(C)C)[C@@H](C)O
notes: Synthetic acylated analogue of human amylin; also called compound 16
B9: N^α1-[(4S)-4-carboxy-4-(19-carboxynonadecanoylamino)butanoyl]-[Glu14,Arg17,Pro21,Pro27,Pro31]-h-amylin (peptide)
peptide: {C20 diacid-γGlu}-KCNTATCATQRLAEFLRHSSPNFGAIPSSTPVGSNTY-NH2
modifications: disulfide 2-7
SMILES: CC[C@H](C)[C@H](NC(=O)[C@H](C)NC(=O)CNC(=O)[C@H](Cc1ccccc1)NC(=O)[C@H](CC(N)=O)NC(=O)[C@@H]1CCCN1C(=O)[C@H](CO)NC(=O)[C@H](CO)NC(=O)[C@H](Cc1c[nH]cn1)NC(=O)[C@H](CCCNC(=N)N)NC(=O)[C@H](CC(C)C)NC(=O)[C@H](Cc1ccccc1)NC(=O)[C@H](CCC(=O)O)NC(=O)[C@H](C)NC(=O)[C@H](CC(C)C)NC(=O)[C@H](CCCNC(=N)N)NC(=O)[C@H](CCC(N)=O)NC(=O)[C@@H](NC(=O)[C@H](C)NC(=O)[C@@H]1CSSC[C@H](NC(=O)[C@H](CCCCN)NC(=O)CC[C@H](NC(=O)CCCCCCCCCCCCCCCCCCC(=O)O)C(=O)O)C(=O)N[C@@H](CC(N)=O)C(=O)N[C@@H]([C@@H](C)O)C(=O)N[C@@H](C)C(=O)N[C@@H]([C@@H](C)O)C(=O)N1)[C@@H](C)O)C(=O)N1CCC[C@H]1C(=O)N[C@@H](CO)C(=O)N[C@@H](CO)C(=O)N[C@H](C(=O)N1CCC[C@H]1C(=O)N[C@H](C(=O)NCC(=O)N[C@@H](CO)C(=O)N[C@@H](CC(N)=O)C(=O)N[C@H](C(=O)N[C@@H](Cc1ccc(O)cc1)C(N)=O)[C@@H](C)O)C(C)C)[C@@H](C)O
notes: Synthetic acylated analogue of human amylin; also called compound 31
B10: N^α1-[(4S)-4-carboxy-4-(19-carboxynonadecanoylamino)butanoyl]-[Glu14,Arg17,Pro21,Pro27]-h-amylin (peptide)
peptide: B1 peptide with N14E
modifications: C20 diacid-gGlu on the alpha amino group of the N-terminal residue; disulfide bridge Cys2-Cys7; C-terminal amide
notes: Synthetic acylated analogue of human amylin; also called compound 9
B11: N^α1-[(4S)-4-carboxy-4-(19-carboxynonadecanoylamino)butanoyl]-[His14,Arg17,Pro21,Pro27,Glu35]-h-amylin (peptide)
peptide: {C20 diacid-γGlu}-KCNTATCATQRLAHFLRHSSPNFGAIPSSTNVGSETY-NH2
modifications: disulfide 2-7
SMILES: CC[C@H](C)[C@H](NC(=O)[C@H](C)NC(=O)CNC(=O)[C@H](Cc1ccccc1)NC(=O)[C@H](CC(N)=O)NC(=O)[C@@H]1CCCN1C(=O)[C@H](CO)NC(=O)[C@H](CO)NC(=O)[C@H](Cc1c[nH]cn1)NC(=O)[C@H](CCCNC(=N)N)NC(=O)[C@H](CC(C)C)NC(=O)[C@H](Cc1ccccc1)NC(=O)[C@H](Cc1c[nH]cn1)NC(=O)[C@H](C)NC(=O)[C@H](CC(C)C)NC(=O)[C@H](CCCNC(=N)N)NC(=O)[C@H](CCC(N)=O)NC(=O)[C@@H](NC(=O)[C@H](C)NC(=O)[C@@H]1CSSC[C@H](NC(=O)[C@H](CCCCN)NC(=O)CC[C@H](NC(=O)CCCCCCCCCCCCCCCCCCC(=O)O)C(=O)O)C(=O)N[C@@H](CC(N)=O)C(=O)N[C@@H]([C@@H](C)O)C(=O)N[C@@H](C)C(=O)N[C@@H]([C@@H](C)O)C(=O)N1)[C@@H](C)O)C(=O)N1CCC[C@H]1C(=O)N[C@@H](CO)C(=O)N[C@@H](CO)C(=O)N[C@H](C(=O)N[C@@H](CC(N)=O)C(=O)N[C@H](C(=O)NCC(=O)N[C@@H](CO)C(=O)N[C@@H](CCC(=O)O)C(=O)N[C@H](C(=O)N[C@@H](Cc1ccc(O)cc1)C(N)=O)[C@@H](C)O)C(C)C)[C@@H](C)O
notes: Synthetic acylated analogue of human amylin; also called compound 30
B12: N^ε1-[(4S)-4-carboxy-4-[[(4S)-4-carboxy-4-(19-carboxynonadecanoylamino)butanoyl]amino]butanoyl]-[Asp14,Arg17,Pro21,Pro27,Arg35]-h-amylin (peptide)
peptide: K([γGlu-γGlu-C20 diacid])CNTATCATQRLADFLRHSSPNFGAIPSSTNVGSRTY-NH2
modifications: disulfide 2-7; N-terminus assumed
SMILES: CC[C@H](C)[C@H](NC(=O)[C@H](C)NC(=O)CNC(=O)[C@H](Cc1ccccc1)NC(=O)[C@H](CC(N)=O)NC(=O)[C@@H]1CCCN1C(=O)[C@H](CO)NC(=O)[C@H](CO)NC(=O)[C@H](Cc1c[nH]cn1)NC(=O)[C@H](CCCNC(=N)N)NC(=O)[C@H](CC(C)C)NC(=O)[C@H](Cc1ccccc1)NC(=O)[C@H](CC(=O)O)NC(=O)[C@H](C)NC(=O)[C@H](CC(C)C)NC(=O)[C@H](CCCNC(=N)N)NC(=O)[C@H](CCC(N)=O)NC(=O)[C@@H](NC(=O)[C@H](C)NC(=O)[C@@H]1CSSC[C@H](NC(=O)[C@@H](N)CCCCNC(=O)CC[C@H](NC(=O)CC[C@H](NC(=O)CCCCCCCCCCCCCCCCCCC(=O)O)C(=O)O)C(=O)O)C(=O)N[C@@H](CC(N)=O)C(=O)N[C@@H]([C@@H](C)O)C(=O)N[C@@H](C)C(=O)N[C@@H]([C@@H](C)O)C(=O)N1)[C@@H](C)O)C(=O)N1CCC[C@H]1C(=O)N[C@@H](CO)C(=O)N[C@@H](CO)C(=O)N[C@H](C(=O)N[C@@H](CC(N)=O)C(=O)N[C@H](C(=O)NCC(=O)N[C@@H](CO)C(=O)N[C@@H](CCCNC(=N)N)C(=O)N[C@H](C(=O)N[C@@H](Cc1ccc(O)cc1)C(N)=O)[C@@H](C)O)C(C)C)[C@@H](C)O
notes: Synthetic acylated analogue of human amylin; also called compound 52

What follows are binders tested against T1, human amylin receptor (amylin 3(a) receptor: human calcitonin receptor plus RAMP-3) (human, UniProt P30988 25-474; O60896 24-148, limits assumed) (assay: cell-based or functional assay).
T1 sequence (looked up) 1: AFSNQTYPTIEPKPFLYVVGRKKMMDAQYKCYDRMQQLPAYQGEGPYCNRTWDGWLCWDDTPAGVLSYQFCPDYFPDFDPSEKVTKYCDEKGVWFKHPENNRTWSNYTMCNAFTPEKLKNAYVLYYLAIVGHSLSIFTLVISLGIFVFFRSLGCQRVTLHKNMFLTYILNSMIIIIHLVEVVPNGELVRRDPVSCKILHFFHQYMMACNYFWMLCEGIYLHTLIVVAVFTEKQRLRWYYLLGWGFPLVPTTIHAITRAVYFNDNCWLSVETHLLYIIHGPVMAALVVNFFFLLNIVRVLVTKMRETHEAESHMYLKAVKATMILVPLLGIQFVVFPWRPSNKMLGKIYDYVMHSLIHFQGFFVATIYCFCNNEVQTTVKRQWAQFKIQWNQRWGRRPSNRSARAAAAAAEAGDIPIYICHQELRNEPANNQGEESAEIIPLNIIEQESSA
T1 sequence (looked up) 2: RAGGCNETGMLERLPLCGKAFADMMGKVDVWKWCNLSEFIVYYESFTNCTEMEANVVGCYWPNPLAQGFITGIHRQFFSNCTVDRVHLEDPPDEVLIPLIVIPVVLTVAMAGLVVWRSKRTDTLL

| Binder | Ratio hCT/hAmylin funct. [ratio] | hAmylin-R funct. EC50 [nM] |
| --- | --- | --- |
| B1 | 23.1 | 0.433 |
| B2 | 17.4 | 0.307 |
| B3 | 11.6 | 0.217 |
| B4 | 8.9 | 0.34 |
| B5 | 16.4 | 0.164 |
| B6 | 8.4 | 0.313 |
| B7 | 9.2 | 0.22 |
| B8 | 6.1 | 0.363 |
| B9 | 6.4 | 0.112 |
| B10 | 7.4 | 0.175 |
| B11 | 12.6 | 0.134 |

These binders were tested against T2, human calcitonin receptor (human, UniProt P30988 25-474) (assay: cell-based or functional assay).
T2 sequence (looked up): T1 sequence (looked up) 1

| Binder | hCTR funct. EC50 [nM] |
| --- | --- |
| B1 | 10 |
| B2 | 5.32 |
| B3 | 2.52 |
| B4 | 3.02 |
| B5 | 2.68 |
| B6 | 2.62 |
| B7 | 2.03 |
| B8 | 2.21 |
| B9 | 0.717 |
| B10 | 1.29 |
| B11 | 1.68 |
| B12 | 14.1 |
